The data set deals with the molecule itself. The data set is described as follows: cryo-EM structure.

B1: 3xFLAG-Lip1, small regulatory subunit of the yeast ceramide synthase (CerS) complex (natural protein, S. cerevisiae)
chain: PKIFNLFRVCFISLLLIAAVEYFKYGTRINYEWFHCTPIKEPQSGSVIKLWARGGPSCDKRGEYKTIVKRITRDYEPNDEHLSFCIIENDNVPPVHYPIHEDKGEPGYVAYVGYDTDSELVQELCADSTIYHM
For orientation: stoichiometry N means the number of molecules, sites or subunits per partner or assembly. Turning to B1, the “stoichiometry N” value amounted to 2.

The values above are taken from article doi:10.1101/2023.10.24.563787 (bioRxiv, 2023).
